T1: purified recombinant human Napi2b antigen consisting of Napi2b-extracellular-loop2 expressed as … (human, UniProt O95436 234-362, limits assumed)
T1 construct: Expressed in Expi-HEK293 cells; also called immobilized human NaPi2B; not shown: Fc part; 6-His tag
T1 sequence: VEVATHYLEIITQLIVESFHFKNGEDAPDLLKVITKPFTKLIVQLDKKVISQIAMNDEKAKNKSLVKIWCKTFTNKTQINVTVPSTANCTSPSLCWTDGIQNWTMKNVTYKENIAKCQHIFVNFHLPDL

T2: human NaPi2b on NaPi2b-positive cell lines OVCAR-3 and HCC-78 (human, UniProt O95436 1-690)
T2 construct: Endogenous protein
T2 sequence: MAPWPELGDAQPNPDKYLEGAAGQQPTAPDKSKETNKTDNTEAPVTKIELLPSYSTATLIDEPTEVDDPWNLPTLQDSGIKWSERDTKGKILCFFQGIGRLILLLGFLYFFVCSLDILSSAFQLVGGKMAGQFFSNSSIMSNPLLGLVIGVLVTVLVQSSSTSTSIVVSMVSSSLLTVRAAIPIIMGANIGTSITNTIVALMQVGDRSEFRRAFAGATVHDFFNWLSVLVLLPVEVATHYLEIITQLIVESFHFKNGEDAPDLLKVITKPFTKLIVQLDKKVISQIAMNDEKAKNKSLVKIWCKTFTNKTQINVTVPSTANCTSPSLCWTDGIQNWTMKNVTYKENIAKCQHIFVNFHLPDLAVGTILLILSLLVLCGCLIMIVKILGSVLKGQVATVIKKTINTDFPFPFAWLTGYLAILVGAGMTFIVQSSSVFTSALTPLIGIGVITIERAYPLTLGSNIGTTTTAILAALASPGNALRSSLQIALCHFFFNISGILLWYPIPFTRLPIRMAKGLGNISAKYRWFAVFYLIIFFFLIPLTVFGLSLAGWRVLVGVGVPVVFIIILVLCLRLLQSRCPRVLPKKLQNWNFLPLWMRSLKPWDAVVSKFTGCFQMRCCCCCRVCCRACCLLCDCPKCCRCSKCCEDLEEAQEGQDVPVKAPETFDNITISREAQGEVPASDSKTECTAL

T3: human Napi2b-mCherry on HEK293 cells (human, UniProt O95436 1-690)
T3 construct: also called Napi2b (SLC34A2); HEK293 cells overexpressing Napi2b
T3 sequence: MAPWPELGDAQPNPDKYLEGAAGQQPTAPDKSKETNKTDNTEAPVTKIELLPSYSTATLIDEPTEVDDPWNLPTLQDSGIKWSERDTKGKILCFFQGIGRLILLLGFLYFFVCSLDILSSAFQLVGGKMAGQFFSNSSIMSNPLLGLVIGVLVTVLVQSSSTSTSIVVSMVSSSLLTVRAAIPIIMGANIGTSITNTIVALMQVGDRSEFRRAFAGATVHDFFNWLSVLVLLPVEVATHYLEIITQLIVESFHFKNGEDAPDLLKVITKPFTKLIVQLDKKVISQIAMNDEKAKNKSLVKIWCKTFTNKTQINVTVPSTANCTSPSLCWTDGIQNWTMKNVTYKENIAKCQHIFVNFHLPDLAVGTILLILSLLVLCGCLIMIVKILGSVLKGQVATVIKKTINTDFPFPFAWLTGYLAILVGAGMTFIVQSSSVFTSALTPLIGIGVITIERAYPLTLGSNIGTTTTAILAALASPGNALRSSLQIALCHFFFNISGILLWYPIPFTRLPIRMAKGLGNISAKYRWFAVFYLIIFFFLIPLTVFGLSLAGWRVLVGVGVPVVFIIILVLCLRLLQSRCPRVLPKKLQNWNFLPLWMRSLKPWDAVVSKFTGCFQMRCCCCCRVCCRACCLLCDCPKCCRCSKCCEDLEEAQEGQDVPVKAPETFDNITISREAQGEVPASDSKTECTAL

T4: HEK293 cyno-NaPi2B-mCherry (Macaca fascicularis, UniProt A0A2K5UHY1)
T4 construct: full-length mCherry fusion stably expressed on HEK293 cells; also called cynomolgus full-length NaPi2b-mCherry on HEK293 cells
T4 sequence (target on cells): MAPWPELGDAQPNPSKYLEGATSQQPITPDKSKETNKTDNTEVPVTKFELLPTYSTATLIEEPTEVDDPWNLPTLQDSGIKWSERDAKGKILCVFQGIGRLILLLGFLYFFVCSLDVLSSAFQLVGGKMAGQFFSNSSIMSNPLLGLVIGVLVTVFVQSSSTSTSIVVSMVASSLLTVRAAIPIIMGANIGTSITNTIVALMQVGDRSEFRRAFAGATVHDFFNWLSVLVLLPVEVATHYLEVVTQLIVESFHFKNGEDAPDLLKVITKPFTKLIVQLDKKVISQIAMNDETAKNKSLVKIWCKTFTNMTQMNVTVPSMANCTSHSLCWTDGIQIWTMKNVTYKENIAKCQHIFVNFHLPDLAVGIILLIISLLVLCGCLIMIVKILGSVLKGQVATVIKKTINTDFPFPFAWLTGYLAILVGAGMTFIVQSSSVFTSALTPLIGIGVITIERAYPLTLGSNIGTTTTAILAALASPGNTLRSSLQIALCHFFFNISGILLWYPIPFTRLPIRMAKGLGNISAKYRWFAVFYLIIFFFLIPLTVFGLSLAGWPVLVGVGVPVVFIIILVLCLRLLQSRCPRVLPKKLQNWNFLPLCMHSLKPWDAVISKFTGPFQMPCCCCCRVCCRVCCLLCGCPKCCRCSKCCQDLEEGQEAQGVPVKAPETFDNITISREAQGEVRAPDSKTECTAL


Legend:
[1] = molecular target: T1, purified recombinant human Napi2b …; test: ELISA, coated Napi2b-extracellular-loop2-Fc-6-His, apparent KD from one-site fit
Method: To determine binding of parental and AV mAb clones to Napi2b antigen, flat-bottom surface-treated 96-well-plates (Nunclon, Thermo Fisher Scientific) were coated with 1 μg/mL purified recombinant human Napi2b antigen consisting of Napi2b-extracellular-loop2 expressed as Fc-fusion-6-His-tagged protein in Expi-HEK293 cells. […] Bound antibodies were detected by incubation with HRP-conjugated goat anti-human kappa light chain secondary antibody (dilution 1:10000 in blocking solution) for 1 hr at RT. […] Absorbance at 450 nm was measured within 10 min of addition of acid using a microplate reader Infinite M1000 Pro (Tecan). Apparent dissociation constants (KD) were derived by non-linear regression using a one-site specific binding model using Prism 9 software.

[2] = molecular target: T2, human NaPi2b on NaPi2b-positive cell …; test: flow cytometry on OVCAR-3 cells; table column Binding KD (nmol/L), FACS (OVCAR-3)
[3] = molecular target: T1, purified recombinant human Napi2b …; test: ELISA on the isolated immobilized protein; table column Binding KD (nmol/L), ELISA
[4] = molecular target: T3, human Napi2b-mCherry on HEK293 cells; test: flow cytometry on HEK293 cells stably expressing human full-length NaPi2b-mCherry, Alexa-dye anti-human IgG H+L secondary antibody, MFI ratio, one-site specific binding fit; the Kd table prints no unit, the concentration axis is in nM
From the text: (§1) HEK293 cells stably overexpressing human and rat Napi2b were generated by stable integration of a human or rat full-length Napi2b-mCherry-(GGGS)3x-mCherry expression construct under control of a human EF1 promoter and a Puromycin-selection cassette under a CMV promoter into the parental HEK293 cell line. In brief, cells were transfected with the linearized plasmids using Lipfectamine 2000 (Thermo Fisher) and selected with Puromycin antibiotic. Cells were then single cell cloned in 96-well plates via serial dilution under continuous antibiotic selection. Clones were screened for target expression via flow cytometry and mCherry fluorescence via flow cytometry and fluorescence microscopy. Target- and mCherry-positive clones were expanded and used for further experiments. […] Binding of antibodies was investigated on mCherry-positive cells. Mean fluorescence intensity (MFI) ratios were normalized to the secondary antibody control. The assay was performed in duplicates and data points were analyzed by a non-linear regression using a one-site specific binding model to derive KD values using Prism 9 software.

[5] = molecular target: T4, HEK293 cyno-NaPi2B-mCherry; test: flow cytometry on HEK293 cells stably expressing cynomolgus full-length NaPi2b-mCherry, Alexa-dye anti-human IgG H+L secondary antibody, MFI ratio, one-site specific binding fit; the Kd table prints no unit, the concentration axis is in nM
From the text: as §1

[6] = molecular target: T2, human NaPi2b on NaPi2b-positive cell …; test: flow cytometry on HCC-78 cells, one-site fit
Method: (§2) To determine concentration-dependent binding, NaPi2b-positive OVCAR-3 and HCC-78 were incubated with antibodies in concentrations ranging from 0.00075 to 30 μg/ml, stained with an Alexa-dye-labeled anti-human IgG H+L secondary antibody (Thermo Fisher Scientific), and analyzed by flow cytometry. Mean fluorescence intensity (MFI) ratios were normalized to the non-specific binding control. The assay was performed in duplicates and data points were analyzed by a non-linear regression using a one-site specific binding model using Prism 9 software.

[7] = molecular target: T2, human NaPi2b on NaPi2b-positive cell …; test: flow cytometry on OVCAR-3 cells, one-site fit
Method: as §2

[8] = molecular target: T2, human NaPi2b on NaPi2b-positive cell …; test: flow cytometry on NaPi2b-positive HCC-78 cells, Alexa-dye-labeled anti-human IgG H+L secondary antibody, MFI ratio normalized to the non-specific binding control
Method: as §2

[9] = molecular target: T2, human NaPi2b on NaPi2b-positive cell …; test: flow cytometry on NaPi2b-positive OVCAR-3 cells, Alexa-dye-labeled anti-human IgG H+L secondary antibody, MFI ratio normalized to the non-specific binding control
Method: as §2

Kd [1] [µg/mL]	Kd [2] [nM]	Kd [3] [nM]	Kd [4] [nM]	Kd [5] [nM]	Kd [6] [µg/mL]	Kd [7] [µg/mL]	EC50 (read off the curve) [8] [µg/mL]	EC50 (read off the curve) [9] [µg/mL]	Binder
0.0158	6.6	0.105	3.5	2.7	–	–	–	–	AV-15 antibody (antibody, human IgG1, kappa, L234A L235A, V domains shown) VH: EVQLVQSGAEVVKPGASVKMSCKASGYTFTGYNIHWVKQAPGQGLEWIGAIYPGNGDTSYKQKFRGRATLTADTSTSTVYMELSSLRSEDSAVYYCARGETARATFAYWGQGTLVTVSS VL: DIQMTQSPSSLSASVGDRVTITCSASQDIGKFLNWYQQKPGKTVKVLIYYSSSLYSGVPSRFSGSGSGTDYTLTISSLQPEDFATYYCQQYSKVPLTFGQGTKLELKR
–	–	–	–	–	1.27	1.11	~1	~1	Upifitamab (antibody, human IgG1, kappa, L234A L235A, V domains shown, Bought from MedChemExpress) VH: EVQLVQSGAEVVKPGASVKMSCKASGYTFTGYNIHWVKQAPGQGLEWIGAIYPGNGDTSYKQKFRGRATLTADTSTSTVYMELSSLRSEDSAVYYCARGETARATFAYWGQGTLVTVSS VL: DIQMTQSPSSLSASVGDRVTITCSASQDIGNFLNWYQQKPGKTVKVLIYYTSSLYSGVPSRFSGSGSGTDYTLTISSLQPEDFATYYCQQYSKLPLTFGQGTKLELKR
0.0125	3.5	0.083	2.08	1.5	–	–	–	–	AV-21 antibody (antibody, human IgG1, kappa, L234A L235A, V domains shown) VH: EVQLVQSGAEVVKPGASVKMSCKASGYTFTGQIIHWVKQAPGQGLEWIGAISPGNSGTSYKQKFRGRATLTADTSTSTVYMELSSLRSEDSAVYYCARGETARATFAYWGQGTLVTVSS VL: DIQMTQSPSSLSASVGDRVTITCSASQDIGNFLNWYQQKPGKTVKVLIYYTSSLYSGVPSRFSGSGSGTDYTLTISSLQPEDFATYYCQQYSKLPLTFGQGTKLELKR
0.0124	3.5	0.082	2.66	1.91	–	–	–	–	AV-29 antibody (antibody, human IgG1, kappa, L234A L235A, V domains shown) VH: EVQLVQSGAEVVKPGASVKMSCKASGYTFTGYNILWVKQAPGQGLEWIGAIYPGNGGTSYKQKFRGRATITADTSTSTVYMELSSLRSEDSAVYYCARGEIARATFAYWGQGTLVTVSS VL: DIQMTQSPSSLSASVGDRVTITCSASQDIGNFLNWYQQKPGKTVKVLIYYASSLYSGVPSRFSGSGSGTDYTLTISSLQPEDFATYYCQQYSKLPLTFGQGTKLELKR
0.0149	3.8	0.099	2.31	1.61	–	–	–	–	AV-18 antibody (antibody, human IgG1, kappa, L234A L235A, V domains shown) VH: EVQLVQSGAEVVKPGASVKMSCKASGYTFTGYIIHWVKQAPGQGLEWIGAIYPGSGATSYKQKFRGRATLTADTSTSTVYMELSSLRSEDSAVYYCARGETARATFAYWGQGTLVTVSS VL: DIQMTQSPSSLSASVGDRVTITCSASQDIGNFLNWYQQKPGKTVKVLIYYTSSLYSGVPSRFSGSGSGTDYTLTISSLQPEDFATYYCQQYSKLPLTFGQGTKLELKR

— US20240182596A1 (TUBULIS, published 2024)
